# Numbering of substitutions follows the chain as printed.
# T1: recombinant human FLT3 protein (human, UniProt P36888 27-541)
# T1 construct: also called recombinant FLT3 protein; human recombinant FLT3 protein (10445-H08H, Sino Biological)
# T1 sequence: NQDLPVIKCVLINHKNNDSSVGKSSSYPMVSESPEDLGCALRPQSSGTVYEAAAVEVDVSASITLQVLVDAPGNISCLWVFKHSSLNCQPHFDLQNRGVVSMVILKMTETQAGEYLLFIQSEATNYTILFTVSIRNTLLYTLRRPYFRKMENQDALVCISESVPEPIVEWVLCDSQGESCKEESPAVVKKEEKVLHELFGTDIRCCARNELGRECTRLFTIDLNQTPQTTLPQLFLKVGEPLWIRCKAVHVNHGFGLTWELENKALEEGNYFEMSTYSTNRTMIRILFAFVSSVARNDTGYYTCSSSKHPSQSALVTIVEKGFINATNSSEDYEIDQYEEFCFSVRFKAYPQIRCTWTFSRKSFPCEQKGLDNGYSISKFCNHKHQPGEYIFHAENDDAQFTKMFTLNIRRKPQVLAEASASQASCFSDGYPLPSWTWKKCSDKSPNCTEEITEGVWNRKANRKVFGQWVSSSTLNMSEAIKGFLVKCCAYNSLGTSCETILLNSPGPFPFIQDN
# T2: human wildtype FLT3 expressed on Ba/F3 cells (human, UniProt P36888 27-993)
# T2 construct: also called hFLT3 wt; Ba/F3-FLT3
# T2 sequence: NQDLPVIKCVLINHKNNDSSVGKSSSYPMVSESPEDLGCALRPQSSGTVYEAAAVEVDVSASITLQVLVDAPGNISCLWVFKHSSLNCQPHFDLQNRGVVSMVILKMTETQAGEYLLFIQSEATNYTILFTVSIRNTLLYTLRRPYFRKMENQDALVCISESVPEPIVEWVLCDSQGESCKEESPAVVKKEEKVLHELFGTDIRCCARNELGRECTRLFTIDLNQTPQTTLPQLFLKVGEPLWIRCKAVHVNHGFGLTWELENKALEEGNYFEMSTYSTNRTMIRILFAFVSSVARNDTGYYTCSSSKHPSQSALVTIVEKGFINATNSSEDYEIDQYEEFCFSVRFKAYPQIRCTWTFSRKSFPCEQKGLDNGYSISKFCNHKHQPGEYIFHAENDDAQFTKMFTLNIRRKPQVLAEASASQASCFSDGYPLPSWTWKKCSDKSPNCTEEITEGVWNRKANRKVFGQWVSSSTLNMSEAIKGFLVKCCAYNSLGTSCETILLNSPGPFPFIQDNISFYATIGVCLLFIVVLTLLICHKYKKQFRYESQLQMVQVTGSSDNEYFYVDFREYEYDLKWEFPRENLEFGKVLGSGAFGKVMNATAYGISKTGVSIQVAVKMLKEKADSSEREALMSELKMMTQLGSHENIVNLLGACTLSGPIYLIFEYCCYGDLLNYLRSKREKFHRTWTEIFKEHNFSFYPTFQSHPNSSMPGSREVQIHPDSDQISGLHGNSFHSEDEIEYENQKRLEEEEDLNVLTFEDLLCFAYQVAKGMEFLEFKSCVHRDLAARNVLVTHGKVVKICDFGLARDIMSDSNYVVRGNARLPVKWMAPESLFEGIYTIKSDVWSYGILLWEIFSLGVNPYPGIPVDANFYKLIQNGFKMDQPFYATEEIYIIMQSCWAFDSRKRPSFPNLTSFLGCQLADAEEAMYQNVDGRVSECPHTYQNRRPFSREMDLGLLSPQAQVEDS
# B1: Humanized clone 13 of 20D9 (VH3 + VK1; HC-LALA, same as Clone #3 but with LALA mutation in HC constant region) (antibody, human IgG1, kappa, L234A L235A)
# heavy: not shown
# light: DIQMTQSPSVLSASVGDRVTINCRASQNINKELNWYQQKLGEAPKLLIYNTNNLQSGVPSRFSGSGSGTDYTLTISSLQPEDVATYFCFQHKSWPLTFGSGTKLEIKRTVAAPSVFIFPPSDEQLKSGTASVVCLLNNFYPREAKVQWKVDNALQSGNSQESVTEQDSKDSTYSLSSTLTLSKADYEKHKVYACEVTHQGLSSPVTKSFNRGEC
# notes: also called #3-LALA; #3-LALA mab
# B2: 29H1 chimeric anti-FLT3 monoclonal antibody (antibody, V domains shown)
# VH: EVKLEESGGGLVQPGGSMKFFCVASGFTFSNYWMNWVRQSPEKGLEWVAQIKLKSDNYATRYAESVKGRFTISRDDSKSSVNLQMNNLRAEDTGIYYCTVSLARSDYWGQGTTLTVSS
# VL: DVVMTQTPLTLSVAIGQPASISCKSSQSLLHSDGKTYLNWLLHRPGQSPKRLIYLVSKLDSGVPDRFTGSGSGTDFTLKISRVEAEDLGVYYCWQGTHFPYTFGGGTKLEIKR
# B3: 27E7 chimeric anti-FLT3 monoclonal antibody (antibody, V domains shown)
# VH: B2 VH with G10D, F20L, F21S, S30R, K52R, R61H, I72M, N82Y, N87T
# VL: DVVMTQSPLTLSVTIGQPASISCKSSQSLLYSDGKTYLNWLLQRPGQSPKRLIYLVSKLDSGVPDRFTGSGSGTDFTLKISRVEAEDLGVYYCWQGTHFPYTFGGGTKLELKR
# B4: 4B12 chimeric anti-FLT3 monoclonal antibody (antibody, V domains shown)
# VH: QVQLQQSGPGLVQPSQTLSLTCTVSGFSLTSYNVNWVRQPPGKGLEWIGAMWRGGGTDYNPALKSRLSISRDTSKSQVFLKMNRLQTEDTAIYFCTRGFGDYWGQGVMVTVSS
# VL: DIQMTQTPLSLSVAIGQSASISCKSSQSLKYSDGKTYLNWVFQSPGQSPKRLIYQVSKLDSGVPDRFSGTGSETDFTLKISRVEAEDLGVYYCCQGSYSPSTFGAGTKLELKR
# notes: also called 4B12 mab
# B5: 30B12 chimeric anti-FLT3 monoclonal antibody (antibody, V domains shown)
# VH: QVQLKVSGPGLVQPSQTLSLTCAVSGFSLSNYHVSWVRQPPGKGLEWIAAISSGGSTYYNSPLKSRLSISRDTSKSQVFLKMNSLQTEDTAIYFCTGEDGYTFGNVMDAWGQGASVTVSS
# VL: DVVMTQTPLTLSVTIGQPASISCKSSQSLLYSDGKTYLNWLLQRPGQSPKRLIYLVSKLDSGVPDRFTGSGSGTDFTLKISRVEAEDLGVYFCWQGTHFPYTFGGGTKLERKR
# B6: #5 (antibody, human IgG1, kappa, V domains shown)
# VH: QVMLVESGGGVVQPGRSLRLSCAASGFTFNNYWMTWVRQAPGKGLEWIASITKTGGGTYYPDSVKGRFTISRDNAKSTLYLQMNSLRSEDTATYYCTTLQQLGVMDAWGQGASVTVSS
# VL: DIQMTQSPSVLSASVGDRVTITCRASQNINKELNWYQQKLGKAPKLLIYNTNNLQSGVPSRFSGSGSGTDFTLTISSLQPEDFATYYCFQHKSWPLTFGSGTKLEIKR
# notes: also called Humanized clone 5 of 20D9 (VH1 + VK2); Clone #5
# B7: #9 (antibody, human IgG1, kappa, V domains shown)
# VH: B6 VH
# VL: B6 VL with V10S, N28S, L40P, S100Q
# notes: also called Humanized clone 9 of 20D9 (VH1 + VK3); Clone #9
# B8: #6 (antibody, human IgG1, kappa, V domains shown)
# VH: B6 VH with A75S, S88A
# VL: B6 VL
# notes: also called Humanized clone 6 of 20D9 (VH2 + VK2); Clone #6
# B9: #11 (antibody, human IgG1, kappa, V domains shown)
# VH: B6 VH with M3Q, P61A, A75S, S77N, S88A, T93V, A112T, S113L
# VL: B6 VL with V10S, N28S, L40P, S100Q
# notes: also called Humanized clone 11 of 20D9 (VH3 + VK3); Clone #11
# B10: Humanized clone 4 of 20D9 (VH4 + VK1) (antibody, human IgG1, kappa, V domains shown)
# VH: B6 VH with M3Q, V37I, P61A, A75S, S77N, S88A, T93V, A112T, S113L
# VL: B6 VL with T22N, K42E, F71Y, F83V, Y87F
# B11: #10 (antibody, human IgG1, kappa, V domains shown)
# VH: B6 VH with A75S, S88A
# VL: B6 VL with V10S, N28S, L40P, S100Q
# notes: also called Humanized clone 10 of 20D9 (VH2 + VK3); Clone #10
# B12: #7 (antibody, human IgG1, kappa, V domains shown)
# VH: B6 VH with M3Q, P61A, A75S, S77N, S88A, T93V, A112T, S113L
# VL: B6 VL
# notes: also called Humanized clone 7 of 20D9 (printed as VH3 + VK29); Clone #7
# B13: Humanized clone 1 of 20D9 (VH1 + VK1) (antibody, human IgG1, kappa, V domains shown)
# VH: B6 VH
# VL: B6 VL with T22N, K42E, F71Y, F83V, Y87F
# B14: #12 (antibody, human IgG1, kappa, V domains shown)
# VH: B6 VH with M3Q, V37I, P61A, A75S, S77N, S88A, T93V, A112T, S113L
# VL: B6 VL with V10S, N28S, L40P, S100Q
# notes: also called Humanized clone 12 of 20D9 (VH4 + VK3); Clone #12
# B15: Humanized clone 2 of 20D9 (VH2 + VK1) (antibody, human IgG1, kappa, V domains shown)
# VH: B6 VH with A75S, S88A
# VL: B6 VL with T22N, K42E, F71Y, F83V, Y87F
# B16: #8 (antibody, human IgG1, kappa, V domains shown)
# VH: B6 VH with M3Q, V37I, P61A, A75S, S77N, S88A, T93V, A112T, S113L
# VL: B6 VL
# notes: also called Humanized clone 8 of 20D9 (VH4 + VK2); Clone #8
# Target: T3, PDGFRα on Ba/F3 cells (UniProt P16234 24-1089, limits assumed)
# T3 construct: whole, on cells
# Experiment: flow cytometry, cell surface binding to Ba/F3 pMIY cells expressing PDGFRα, MFI ratio normalized to IgG1, mean ± s.d. of n=3
# T3 sequence (P16234 24-1089 limits assumed): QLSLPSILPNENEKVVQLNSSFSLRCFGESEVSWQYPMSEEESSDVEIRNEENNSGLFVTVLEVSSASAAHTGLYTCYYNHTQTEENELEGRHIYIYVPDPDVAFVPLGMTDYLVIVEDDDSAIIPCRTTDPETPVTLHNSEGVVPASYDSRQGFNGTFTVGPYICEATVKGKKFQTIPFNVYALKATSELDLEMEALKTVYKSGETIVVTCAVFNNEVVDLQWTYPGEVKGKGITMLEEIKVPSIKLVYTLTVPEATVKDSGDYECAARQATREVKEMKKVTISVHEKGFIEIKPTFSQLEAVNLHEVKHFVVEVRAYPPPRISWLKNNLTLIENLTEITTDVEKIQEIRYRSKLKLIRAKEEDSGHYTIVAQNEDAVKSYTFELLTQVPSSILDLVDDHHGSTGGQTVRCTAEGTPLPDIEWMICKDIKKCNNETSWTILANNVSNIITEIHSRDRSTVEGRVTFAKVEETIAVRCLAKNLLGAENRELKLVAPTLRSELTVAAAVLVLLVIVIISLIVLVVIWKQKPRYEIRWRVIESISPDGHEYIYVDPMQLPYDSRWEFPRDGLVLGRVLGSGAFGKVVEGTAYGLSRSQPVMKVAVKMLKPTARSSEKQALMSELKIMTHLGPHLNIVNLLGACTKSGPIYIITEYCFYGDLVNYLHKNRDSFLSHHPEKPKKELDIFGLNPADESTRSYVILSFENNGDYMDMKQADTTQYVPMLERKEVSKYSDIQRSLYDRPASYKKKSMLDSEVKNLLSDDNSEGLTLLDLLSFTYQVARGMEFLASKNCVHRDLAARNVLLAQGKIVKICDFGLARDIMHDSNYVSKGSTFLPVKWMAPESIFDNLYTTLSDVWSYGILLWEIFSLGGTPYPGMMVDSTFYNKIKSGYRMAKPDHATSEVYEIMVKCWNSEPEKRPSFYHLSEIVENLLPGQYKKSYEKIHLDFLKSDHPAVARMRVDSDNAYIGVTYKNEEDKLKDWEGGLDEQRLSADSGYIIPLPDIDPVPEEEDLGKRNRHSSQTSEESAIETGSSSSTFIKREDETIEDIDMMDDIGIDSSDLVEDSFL
row,binding result,Binder
1,no binding,B1

# Target: T4, c-KIT on Ba/F3 cells (UniProt P10721 26-976, limits assumed)
# T4 construct: whole, on cells
# Experiment: flow cytometry, cell surface binding to Ba/F3 pMIY cells expressing c-KIT, MFI ratio normalized to IgG1, mean ± s.d. of n=3
# T4 sequence (P10721 26-976 limits assumed): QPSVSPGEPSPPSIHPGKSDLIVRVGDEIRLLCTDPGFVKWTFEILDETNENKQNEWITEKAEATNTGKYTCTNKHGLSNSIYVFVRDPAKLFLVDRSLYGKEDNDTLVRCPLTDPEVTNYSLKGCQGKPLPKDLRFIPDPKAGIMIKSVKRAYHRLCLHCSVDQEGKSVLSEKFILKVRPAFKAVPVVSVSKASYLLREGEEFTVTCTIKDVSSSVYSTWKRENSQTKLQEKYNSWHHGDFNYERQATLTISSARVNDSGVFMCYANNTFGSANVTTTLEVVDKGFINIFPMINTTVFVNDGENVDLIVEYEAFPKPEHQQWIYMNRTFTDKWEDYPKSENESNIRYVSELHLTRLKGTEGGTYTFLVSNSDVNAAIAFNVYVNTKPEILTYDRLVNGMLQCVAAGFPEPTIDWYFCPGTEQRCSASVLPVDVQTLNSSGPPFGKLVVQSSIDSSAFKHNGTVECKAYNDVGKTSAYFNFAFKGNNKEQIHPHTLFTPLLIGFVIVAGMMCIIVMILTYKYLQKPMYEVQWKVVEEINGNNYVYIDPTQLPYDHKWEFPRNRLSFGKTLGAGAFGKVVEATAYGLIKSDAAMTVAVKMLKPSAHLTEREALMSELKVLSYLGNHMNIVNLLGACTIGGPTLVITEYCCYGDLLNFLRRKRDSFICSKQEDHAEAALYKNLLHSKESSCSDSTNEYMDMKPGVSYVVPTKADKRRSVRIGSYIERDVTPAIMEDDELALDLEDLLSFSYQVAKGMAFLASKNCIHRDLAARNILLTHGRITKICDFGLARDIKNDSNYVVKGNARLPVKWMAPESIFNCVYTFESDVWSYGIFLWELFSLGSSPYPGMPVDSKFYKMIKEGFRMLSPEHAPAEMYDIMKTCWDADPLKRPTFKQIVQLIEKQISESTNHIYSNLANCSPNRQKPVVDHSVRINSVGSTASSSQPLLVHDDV
row,binding result,Binder
1,no binding,B1

# Target: T1, recombinant human FLT3 protein
# Experiment: ELISA on recombinant human FLT3, normalized to BSA control
# Experimental: (§1) Maxisorp plates were coated with human recombinant FLT3 protein (10445-H08H, Sino Biological). […] For detection, Attophos Fluorescent Substrate System (S1000, Promega) was applied. The fluorescence was read with excitation of 405 nm and emission at 500-550 nm. The calculation of the dissociation constant KD was performed using GraphPad Prism version 9.4.0.
row,Kd,Binder
1,0.0284 µg/mL,B2
2,0.0115 µg/mL,B3
3,0.0319 µg/mL,B4
4,3.31 µg/mL,B5

# Target: T1, recombinant human FLT3 protein
# Experiment: ELISA with recombinant human FLT3 coated to the plate (results of FIG. 13 summarized)
# Experimental: as §1
# The 12 clones were subsequently analysed in ELISA assays (FIG. 13). Therefore, recombinant human FLT3 was coated on plates and incubated with the antibody candidates. […] Mean±s.d. of n=3 biological replicates.
row,Kd,Binder
1,0.0293 µg/mL,B6
2,0.0834 µg/mL,B7
3,0.0335 µg/mL,B8
4,0.112 µg/mL,B9
5,0.011 µg/mL,B10
6,0.0778 µg/mL,B11
7,0.0371 µg/mL,B12
8,0.0114 µg/mL,B13
9,0.0553 µg/mL,B14
10,0.0114 µg/mL,B15
11,0.0293 µg/mL,B16

# Target: CD16 (Fc gamma receptor) on Ba/F3 cells (human, UniProt P08637 17-254)
# Experiment: flow cytometry, cell surface binding to Ba/F3-pMIY cells expressing CD16, specific MFI, mean ± s.d. of n=3
# CD16 (Fc gamma receptor) on Ba/F3 cells, sequence (P08637 17-254 limits assumed): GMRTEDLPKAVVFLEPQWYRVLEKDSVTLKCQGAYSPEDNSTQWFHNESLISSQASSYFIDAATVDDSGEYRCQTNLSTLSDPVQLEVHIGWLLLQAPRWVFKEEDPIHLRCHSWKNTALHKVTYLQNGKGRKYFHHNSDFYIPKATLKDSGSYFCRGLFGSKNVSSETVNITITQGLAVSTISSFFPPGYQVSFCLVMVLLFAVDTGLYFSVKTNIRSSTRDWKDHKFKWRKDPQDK
row,binding result,Binder
1,no binding,B1

# Target: T2, human wildtype FLT3 expressed on Ba/F3 …
# Experiment: flow cytometry, cell surface binding to Ba/F3 cells expressing human FLT3 (results of FIG. 14 summarized)
row,Binding to human FLT3 (MFI ratio to IgG1 control),Binder
1,42.4,B6
2,21.3,B7
3,41.3,B8
4,20.5,B9
5,98.2,B10
6,20.2,B11
7,45.7,B12
8,96,B13
9,24.8,B14
10,96,B15
11,43.7,B16

# Target: T5, human CD64 (high affinity Fc receptor, FCGR1) on cells (human, UniProt P12314 16-374)
# T5 construct: whole, on cells; also called hCD64; human FCGR1
# Experiment: flow cytometry, cell surface binding to Ba/F3-pMIY cells expressing CD64, specific MFI, mean ± s.d. of n=3
row,binding result,Binder
1,binds,B1

# Target: T6, CSF1R on Ba/F3 cells (UniProt P07333 20-972, limits assumed)
# T6 construct: whole, on cells
# Experiment: flow cytometry, cell surface binding to Ba/F3 pMIY cells expressing CSF-1R, MFI ratio normalized to IgG1, mean ± s.d. of n=3
# T6 sequence (P07333 20-972 limits assumed): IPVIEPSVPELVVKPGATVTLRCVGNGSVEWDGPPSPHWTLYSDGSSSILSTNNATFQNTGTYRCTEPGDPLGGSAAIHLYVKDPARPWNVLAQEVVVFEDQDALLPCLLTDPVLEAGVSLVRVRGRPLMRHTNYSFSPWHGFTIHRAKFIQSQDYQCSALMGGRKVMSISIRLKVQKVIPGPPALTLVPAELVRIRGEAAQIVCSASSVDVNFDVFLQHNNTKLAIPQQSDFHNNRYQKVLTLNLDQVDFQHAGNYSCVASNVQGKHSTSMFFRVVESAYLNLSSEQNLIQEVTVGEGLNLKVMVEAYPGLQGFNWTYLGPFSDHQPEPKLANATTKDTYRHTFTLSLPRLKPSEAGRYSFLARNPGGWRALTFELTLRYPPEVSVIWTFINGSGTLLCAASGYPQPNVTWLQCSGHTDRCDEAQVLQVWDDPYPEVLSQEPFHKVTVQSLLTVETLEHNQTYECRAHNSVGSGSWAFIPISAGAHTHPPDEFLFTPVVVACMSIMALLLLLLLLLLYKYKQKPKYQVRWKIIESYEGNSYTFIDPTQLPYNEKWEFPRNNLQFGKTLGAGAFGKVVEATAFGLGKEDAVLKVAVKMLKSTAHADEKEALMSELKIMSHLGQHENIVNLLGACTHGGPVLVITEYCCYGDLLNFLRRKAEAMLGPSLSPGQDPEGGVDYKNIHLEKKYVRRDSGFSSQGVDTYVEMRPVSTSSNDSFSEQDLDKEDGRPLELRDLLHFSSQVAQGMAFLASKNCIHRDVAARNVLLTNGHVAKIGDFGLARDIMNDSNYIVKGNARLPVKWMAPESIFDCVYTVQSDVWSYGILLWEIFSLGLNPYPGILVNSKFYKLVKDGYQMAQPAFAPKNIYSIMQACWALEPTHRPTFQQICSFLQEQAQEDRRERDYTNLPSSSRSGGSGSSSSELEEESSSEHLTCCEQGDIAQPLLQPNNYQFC
row,binding result,Binder
1,no binding,B1

# Target: T7, VEGFR-2 on Ba/F3 cells (UniProt P35968 20-1356, limits assumed)
# T7 construct: whole, on cells
# Experiment: flow cytometry, cell surface binding to Ba/F3 pMIY cells expressing VEGFR, MFI ratio normalized to IgG1, mean ± s.d. of n=3
# T7 sequence (P35968 20-1356 limits assumed): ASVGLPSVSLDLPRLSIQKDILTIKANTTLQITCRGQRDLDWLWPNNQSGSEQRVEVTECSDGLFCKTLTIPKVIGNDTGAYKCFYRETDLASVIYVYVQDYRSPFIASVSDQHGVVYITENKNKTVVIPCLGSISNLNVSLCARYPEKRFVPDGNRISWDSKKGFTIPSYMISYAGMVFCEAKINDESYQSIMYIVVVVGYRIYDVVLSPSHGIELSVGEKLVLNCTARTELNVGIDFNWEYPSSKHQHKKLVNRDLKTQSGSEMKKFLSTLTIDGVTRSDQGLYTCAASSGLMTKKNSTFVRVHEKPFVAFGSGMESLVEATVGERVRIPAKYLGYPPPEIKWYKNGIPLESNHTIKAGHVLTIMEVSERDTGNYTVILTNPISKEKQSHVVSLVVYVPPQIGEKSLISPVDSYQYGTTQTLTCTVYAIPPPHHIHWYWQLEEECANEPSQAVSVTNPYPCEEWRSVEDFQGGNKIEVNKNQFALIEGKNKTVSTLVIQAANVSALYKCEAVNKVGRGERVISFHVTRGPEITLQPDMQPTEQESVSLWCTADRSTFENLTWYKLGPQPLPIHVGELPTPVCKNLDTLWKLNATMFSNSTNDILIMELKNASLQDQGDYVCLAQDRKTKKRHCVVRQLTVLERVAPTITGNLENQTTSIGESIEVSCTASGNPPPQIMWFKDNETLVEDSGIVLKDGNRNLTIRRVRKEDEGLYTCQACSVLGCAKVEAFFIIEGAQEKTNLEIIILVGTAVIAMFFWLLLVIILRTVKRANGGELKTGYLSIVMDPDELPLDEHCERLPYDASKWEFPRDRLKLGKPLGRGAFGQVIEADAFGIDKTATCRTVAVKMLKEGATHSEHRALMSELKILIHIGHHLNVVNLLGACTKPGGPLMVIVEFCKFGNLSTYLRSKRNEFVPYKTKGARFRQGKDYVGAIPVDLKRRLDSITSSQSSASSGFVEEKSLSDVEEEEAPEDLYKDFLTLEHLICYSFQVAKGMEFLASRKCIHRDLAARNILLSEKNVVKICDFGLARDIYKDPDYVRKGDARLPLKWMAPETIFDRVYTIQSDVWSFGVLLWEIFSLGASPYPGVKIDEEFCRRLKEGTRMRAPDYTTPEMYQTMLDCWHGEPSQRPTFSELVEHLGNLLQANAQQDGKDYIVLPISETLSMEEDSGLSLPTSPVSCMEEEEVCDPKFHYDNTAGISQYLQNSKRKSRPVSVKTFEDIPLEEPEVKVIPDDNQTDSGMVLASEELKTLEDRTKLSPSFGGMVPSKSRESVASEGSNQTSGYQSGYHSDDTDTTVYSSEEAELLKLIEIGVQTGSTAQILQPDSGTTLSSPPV
row,binding result,Binder
1,no binding,B1

# Reference: patent US20250049939A1 (TUBULIS, published 2025)
